Drawing on patent US20130115635A1, this text covers Kd and Stoichiometry for 1 molecule.

Assay [1] addresses Peptide N-YEPEA-C. Nature of the assay: ITC, 293.1 K. For orientation: ITC needs no label: the signal is the heat of the interaction.
Assay [2] has as its target Peptide N-YEPEA-C. Nature of the assay: ITC, 303.1 K.
The target in assay [3] is Peptide N-YEPEA-C. The assay can be described thus: ITC, 310.1 K.
Assay [4] deals with Peptide N-YEPEA-C. The assay can be described thus: ITC, 298.1 K.

B1: NbSyn2 (VHH)
VHH: QGQLVESGGGSVQAGGSLRLSCAASGIDSSSYCMGWFRQRPGKEREGVARINGLGGVKTAYADSVKDRFTISRDNAENTVYLQMNSLKPEDTAIYYCAAKFSPGYCGGSWSNFGYWGQGTQVTVSS
Broadly, the Kd is the constant that tells how readily two partners part at equilibrium. The low end stands for tighter binding, the high end for weaker binding. Take B1: the Kd turned out to be 0.24 µM in the assay with Peptide N-YEPEA-C [1], 0.46 µM with Peptide N-YEPEA-C [2], 0.85 µM in the assay with Peptide N-YEPEA-C [3] and 0.19 µM in the assay with Peptide N-YEPEA-C [4]. In addition, the Stoichiometry with Peptide N-YEPEA-C [1] came to 0.98; with Peptide N-YEPEA-C [2], 0.94; with Peptide N-YEPEA-C [3], 0.92; with Peptide N-YEPEA-C [4], 0.99.
